Measurements as given in US20190248902A1 (published 2019).
Where a chain is given by its changes, count along the chain named.

B1: 29E2 (antibody, V domains shown)
VH: QVQLVESGGGVVQPGRSLRLSCAASGFTFSNCVMHWVRQAPGKGLEWVAVIWYDGSNKYYADSVKGRITISRDNSKNTLYLQMNSLRAEDTAVYYCAREEYSSGWYDYGMDVWGQGTTVTVSS
VL: DIQMTQSPSSLSASVGDRVTITCRASQAIRNDLGWYQQRPGKAPKRLIYAASSLQSGVPSRFSGSGSGTEFILTISSLQPEDFATYYCLQHYNYPRSFGQGTKLEIK
notes: mAb
B2: 45B4 (antibody, V domains shown)
VH: B1 VH with N31D, I68F, E100R, W105L
VL: B1 VL with I21F, A28G, N31D, R39K, I72T, N93S, S97T, L104V
notes: mAb
B3: 4B3 (antibody, V domains shown)
VH: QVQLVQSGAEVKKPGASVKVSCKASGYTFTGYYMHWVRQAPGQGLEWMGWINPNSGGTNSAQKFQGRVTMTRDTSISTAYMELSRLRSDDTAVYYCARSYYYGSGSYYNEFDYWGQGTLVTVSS
VL: SYELTQPPSVSVSPRQTVSITCSGDKLGDKYACWYQQKPGQSPVLVIYQDRKRPSGIPERFSGSNSGNTATLTISGTQAMDEADYYCQAWDNNTVIFGGGTKLTVL
notes: mAb
B4: 6G6 (antibody, V domains shown)
VH: QVQLVQSGAEVRKPGASVKVSCKASGYTFTNYDINWVRQATGQGPEWMGWMHPNSGNTGYAKKFQGRVTMTRNTSISAAYMVLSSLRSEDTAVYYCALSSGWYYFDYWGQGTLVTVSS
VL: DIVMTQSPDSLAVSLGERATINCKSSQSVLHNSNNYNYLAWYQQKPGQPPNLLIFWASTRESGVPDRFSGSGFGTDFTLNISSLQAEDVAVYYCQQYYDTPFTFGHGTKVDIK
notes: mAb
B5: 10G6 (antibody, V domains shown)
VH: QVQLVQSGAEVKKPGASVKVSCKASGYTFTAYHMHWVRQAPGQGLEWMGWINPNNNGTNYAQKFQGRVTMTRDTSISTAYMELSRLRSDDTAVYYCGRDVTSSFDYWGQGTLVTVSS
VL: DIQMTQSPSSVSASVGDRVTITCRASQGISKWLAWYQQKPGKAPKILIYAAYSLQSGVPARFSGSGSGTDFTLTIRSLQPEDFATYYCQQANSFPFTFGPGTKVDIK
notes: mAb
B6: 53F7 (antibody, V domains shown)
VH: B5 VH with A31G, S84N, R87T, G97A, V100G
VL: B5 VL with T5S, K31R, K45N, I46L, Y52S, A60S, R76S, T85I
notes: mAb
B7: 32D6 (antibody, V domains shown)
VH: QVQLVESGGGVVQPGRSLRLSCAASGFTFSSYGMHWVRQAPGKGLEWVTVIWHDGSNAYYADSVKGRFTISRDNSKNTLYLQMNSLRAEDTAVYYCARENSSSYYFDYWGQGTLVTVSS
VL: DIQMTQSPSSLSTSVGDRVTITCRASQNIISYLNWYQQKPGKAPKLLMYVASRLQSGVPSRFSGSGSGTDFTLTISSLQAEDFATYYCQQSYSTPYTFGGGTKVAIK
notes: mAb

Experiments:
[1] = molecular target: T1, human ASGR-1 (wild type) (human, UniProt P07306 1-291); assay: FACS, transfected CHO-S cells, mAb 5 ug/ml
T1 construct: also called wt ASGR1; huASGR-1
T1 sequence: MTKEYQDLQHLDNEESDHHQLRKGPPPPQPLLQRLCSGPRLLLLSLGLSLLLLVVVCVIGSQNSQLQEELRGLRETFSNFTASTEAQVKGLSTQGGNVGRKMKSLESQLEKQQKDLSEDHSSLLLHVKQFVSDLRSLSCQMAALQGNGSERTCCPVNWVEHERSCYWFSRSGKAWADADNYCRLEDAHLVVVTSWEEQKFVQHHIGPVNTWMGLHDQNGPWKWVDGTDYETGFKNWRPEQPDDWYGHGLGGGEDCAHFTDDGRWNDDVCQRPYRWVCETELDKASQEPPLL
Description: (§1) The ability of human ASGR-1-specific, ligand competing antibodies to bind to the mutant hASGR-1 proteins was assessed by FACS as described above.
(§2) Antibodies were tested for binding to the individual mutant and wild type ASGR-1 constructs using normalized antibody concentrations (5 ug/ml). CHO—S cells transiently expressing the appropriate mutated or non-mutated antigen of interest were mixed with antibody sample or controls, incubated for 1 hour at 4° C., and then washed twice. Cells with bound antibody were then incubated with Alexa Fluor® 647 IgG Fc fragment-specific detection antibody and 7-AAD viability stain for 15 minutes at 4° C., washed once and resuspended in FACS buffer. Samples were analyzed using a BD Accuri™ Flow Cytometer and an Intellicyt HyperCyt Autosampler. As a negative control, supernatants and controls were also screened against CHO—S cells transfected with empty parental vector (referred to as mock). […] Because mutant hASGR-1 expression levels varied relative to each other, sample binding data for each construct was normalized for expression by dividing the binding data from an antibody not affected by the mutations (e.g., 65C12) by the binding values of each test antibody on a given mutant construct. Also, because the antibody binding affinities varied amongst the samples, the expression corrected data (above) was further normalized by comparing test antibody binding on each mutant construct to wild type hASGR-1. Identification of specific mutations that affected test antibody binding was performed by an interquartile range (IQR) analysis to determine statistical outliers. A mutation was identified as a “hit” if the calculated values were >3× the IQR (above the 3rd quartile/upper fence) for a given mutant construct. Although IQR analysis was used here to determine signifance and identify hits, one skilled in the art will recognize that a number of methods could be employed in order to normalize the data (eg. using epitope-tagged constructs or other ASGR-1-binding antibodies directed against non-CBD epitopes).

[2] = molecular target: T2, human ASGR-1 mutant construct H203 (human, UniProt P07306 1-291); assay: FACS, transfected CHO-S cells, mAb 5 ug/ml
T2 construct: Arg/Glu scanning: non-arginine residues were changed to arginine; Transiently expressed on CHO-S cells
T2 sequence: T1 sequence with H203R
Description: as §1, §2

[3] = molecular target: T1, human ASGR-1 (wild type); assay: FACS ratio: 65C12 geomean / this mAb geomean
Description: (§3) Mutant hASGR-1 variants were constructed such that non-arginine residues were changed to arginine and where wild type arginine residues were mutated to glutamic acid. Each mutant hASGR-1 sequence was then cloned into a mammalian expression vector and used to transiently transfect CHOs cells. The ability of human ASGR-1-specific, ligand competing antibodies to bind to the mutant hASGR-1 proteins was assessed by FACS as described above.
(§4) Antibodies were tested for binding to the individual mutant and wild type ASGR-1 constructs using normalized antibody concentrations (5 ug/ml). CHO—S cells transiently expressing the appropriate mutated or non-mutated antigen of interest were mixed with antibody sample or controls, incubated for 1 hour at 4° C., and then washed twice. Cells with bound antibody were then incubated with Alexa Fluor® 647 IgG Fc fragment-specific detection antibody and 7-AAD viability stain for 15 minutes at 4° C., washed once and resuspended in FACS buffer. Samples were analyzed using a BD Accuri™ Flow Cytometer and an Intellicyt HyperCyt Autosampler. As a negative control, supernatants and controls were also screened against CHO—S cells transfected with empty parental vector (referred to as mock). […] Because mutant hASGR-1 expression levels varied relative to each other, sample binding data for each construct was normalized for expression by dividing the binding data from an antibody not affected by the mutations (e.g., 65C12) by the binding values of each test antibody on a given mutant construct. Also, because the antibody binding affinities varied amongst the samples, the expression corrected data (above) was further normalized by comparing test antibody binding on each mutant construct to wild type hASGR-1. Identification of specific mutations that affected test antibody binding was performed by an interquartile range (IQR) analysis to determine statistical outliers. A mutation was identified as a “hit” if the calculated values were >3× the IQR (above the 3rd quartile/upper fence) for a given mutant construct.

[4] = molecular target: T2, human ASGR-1 mutant construct H203; assay: FACS ratio: 65C12 geomean / this mAb geomean
Description: as §3, §4

[5] = molecular target: T2, human ASGR-1 mutant construct H203; assay: FACS ratio: H203 normalized value / wt normalized value
Description: as §1, §2

Binder | FACS Binding Geomean [1] | FACS Binding Geomean [2] | Expression Normalization to mAb 65C12 [3] | Expression Normalization to mAb 65C12 [4] | Normalization to wt ASGR1 Binding [5]
B1 | 25800 | 15100 | 2.18 | 1.71 | 0.786
B2 | 30400 | 14000 | 1.85 | 1.84 | 0.995
B3 | 35600 | 1700 | 1.58 | 15.2 | 9.63
B4 | 47600 | 20500 | 1.18 | 1.26 | 1.07
B5 | 43100 | 18200 | 1.3 | 1.41 | 1.09
B6 | 43500 | 18100 | 1.29 | 1.42 | 1.1
B7 | 36100 | 13500 | 1.55 | 1.91 | 1.23
